B1: GST-HPV16 E7 (other)
chain: MHGDTPTLHEYMLDLQPETTDLYCYEQLNDSSEEEDEIDGPAGQAEPDRAHYNIVTFCCKCDSTLRLCVQSTHVDIRTLEDLLMGTLGIVCPICSQKP
notes: range 1-98; GST fusion from pGEX-4T-3; also called GST-16E7; full length GST-HPV 16 E7; not shown: glutathione-S-transferase (GST) moiety of vector pGEX-4T-3, at the amino-terminus
B2: GST-HPV31 E7 (other)
chain: MRGETPTLQDYVLDLQPEATDLHCYEQLPDSSDEEDVIDSPAGQAEPDTSNYNIVTFCCQCKSTLRLCVQSTQVDIRILQELLMGSFGIVCPNCSTRL
notes: GST fusion from pGEX-4T-3; also called GST-31E7; not shown: glutathione-S-transferase (GST) moiety of vector pGEX-4T-3, at the amino-terminus
B3: His-p21C (other)
chain: GLPKLYLPTGPRRGRDELGGGRRPGTSPALLQGTAEEDHVDLSLSCTLVPRSGEQAEGSPGGPGDSQGRKRRQTSMTDFYHSKRRLIFSKRKP
notes: range 72-164; also called carboxy terminal residues 72-164 of p21; not shown: poly-histidine tag from vector pET15b

How the values were obtained:
[1] = biological target: cyclin A/CDK2 complex (UniProt P20248 1-432; P24941 1-298); experiment: cell-based or functional assay
[2] = biological target: CDK2 kinase complex (cyclin not given) (UniProt P24941 1-298); experiment: cell-based or functional assay
[3] = biological target: T1, His-p27N (human, UniProt P46527 1-101); experiment: GST pull-down on glutathione-agarose beads, SDS-PAGE, Coomassie blue and Western blot
T1 construct: range 1-101; also called amino terminal residues 1-101 from p27; not shown: poly-histidine tag from the expression vector

[4] = biological target: T2, His-p27C (human, UniProt P46527 95-198); experiment: as above
T2 construct: range 95-198; also called carboxy terminal residues 95-198 of p27; not shown: poly-histidine tag from the expression vector

[5] = biological target: B1; experiment: as above
[6] = biological target: B2; experiment: as above

T2 sequence (P46527 95-198): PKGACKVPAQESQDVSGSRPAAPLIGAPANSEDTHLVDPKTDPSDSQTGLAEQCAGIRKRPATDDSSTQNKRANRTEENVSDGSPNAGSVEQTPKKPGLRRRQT
T1 sequence (P46527 1-101): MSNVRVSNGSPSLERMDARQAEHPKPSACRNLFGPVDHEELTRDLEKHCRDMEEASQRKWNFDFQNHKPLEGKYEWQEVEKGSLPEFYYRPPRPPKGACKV
Chain of cyclin A/CDK2 complex (P20248 whole entry, one chain of several): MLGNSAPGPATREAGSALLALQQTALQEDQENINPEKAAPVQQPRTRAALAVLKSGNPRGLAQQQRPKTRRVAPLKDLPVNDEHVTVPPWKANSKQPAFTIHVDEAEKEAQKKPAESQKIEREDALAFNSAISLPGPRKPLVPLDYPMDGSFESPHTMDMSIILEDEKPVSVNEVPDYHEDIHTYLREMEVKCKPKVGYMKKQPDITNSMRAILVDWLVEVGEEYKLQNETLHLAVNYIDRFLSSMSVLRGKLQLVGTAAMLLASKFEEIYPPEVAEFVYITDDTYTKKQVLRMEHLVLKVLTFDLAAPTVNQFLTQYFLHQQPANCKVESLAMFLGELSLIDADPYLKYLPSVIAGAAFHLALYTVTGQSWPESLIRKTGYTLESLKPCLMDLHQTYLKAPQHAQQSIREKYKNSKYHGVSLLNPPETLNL

Binder | cyclinA/CDK2 histone H1 kinase activity (PhosphorImager) [1] [fold] | CDK2 histone kinase activity, fold activation [2] [fold] | binding result [3] | binding result [4] | binding result [5] | binding result [6]
B1 | 26 | 18.2 | no binding | no binding | – | –
B2 | – | 12.6 | no binding | no binding | – | –
B3 | – | – | – | – | no binding | no binding

Source: patent US20010029022A1 (PHARMACIA AND UPJOHN, published 2001)
